Laboratory results published in publication PMC8654288, “Structural basis of DegP protease temperature-dependent activation” (Science Advances, 2021).
Where “and” joins values, the source holds several entries; their conditions need not be identical. Equal values may be shown once. Blank lines part the entries; values can stand above or below the binder they belong to. No end group written: not given here. NO3 = not defined here

B1: DegP PDZ1-PDZ2 domain construct (DegP^261-448) (domain or fragment, E. coli K12, UniProt P0C0V0 287-474, looked up)
chain: KRGELGIMGTELNSELAKAMKVDAQRGAFVSQVLPNSSAAKAGIKAGDVITSLNGKPISSFAALRAQVGTMPVGSKLTLGLLRDGKQVNVNLELQQSSQNQVDSSSIFNGIEGAEMSNKGKDQGVVVNNVKTGTPAAQIGLKKGDVIIGANQQAVKNIAELRKVLDSKPSVLALNIQRGDSTIYLLMQ
notes: DegP protease, E. coli K12, PDZ1-PDZ2 domains, residues 261-448; numbers count on: the mature protein; Isotope-labelled for NMR; also called PDZ1-PDZ2 bidomain; pDS12; source: E. coli BL21 Star (λ DE3), purified (Ni2+ Sepharose, SENP1 cleavage, Superdex 75 Increase SEC); not shown: His6-SUMO, N-terminal, cleaved

How the values were obtained:
[1] = target: the molecule itself; assay: NMR line broadening and peak intensities ([13C,1H] spectra of side chains); [U-13C,15N]-PDZ1-PDZ2 alone at 25° to 50°C; Y444 Cα and ring resonances, M280 ε-methyl open and locked states
[2] = target: T1, DegP^S210A,Y444A (E. coli K12), P0C0V0; assay: SEC; full-length DegP^S210A variants alone; 8°C stated for DegP^S210A,Y444A; trimer and hexamer species; settings: remark: other sources report otherwise
T1 chain: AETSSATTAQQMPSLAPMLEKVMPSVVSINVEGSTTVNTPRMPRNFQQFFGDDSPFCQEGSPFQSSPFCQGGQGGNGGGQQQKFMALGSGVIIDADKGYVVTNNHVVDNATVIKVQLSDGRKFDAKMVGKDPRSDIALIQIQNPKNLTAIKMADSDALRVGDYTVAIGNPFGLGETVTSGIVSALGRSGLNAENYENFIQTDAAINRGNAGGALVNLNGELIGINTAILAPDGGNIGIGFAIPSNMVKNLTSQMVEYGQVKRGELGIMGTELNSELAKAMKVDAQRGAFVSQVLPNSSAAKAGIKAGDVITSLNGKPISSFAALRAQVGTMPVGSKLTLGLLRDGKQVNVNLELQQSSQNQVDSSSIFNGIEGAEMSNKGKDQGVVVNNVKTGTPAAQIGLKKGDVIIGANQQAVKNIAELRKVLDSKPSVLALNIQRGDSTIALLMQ

[3] = target: T1, DegP^S210A,Y444A (E. coli K12), P0C0V0; assay: NMR pulsed field gradient diffusion (13C-methyl-filtered); [U-2H, Ile-δ1-13CH3]-DegP samples at 25°C; NMR buffer 25 mM potassium phosphate, 1 mM EDTA, 1 mM TCEP pH 7.0; oligomeric state from viscosity- and temperature-corrected translational diffusion coefficient against a calibration curve; hexamer to trimers; settings: remark: other sources report otherwise
[4] = target: the molecule itself; assay: NMR pulsed field gradient diffusion (13C-methyl-filtered); DegP^S210A,M280I, temperature series (fig. S1, K and L); hexamer to trimers
[5] = target: the molecule itself; assay: NMR pulsed field gradient diffusion (13C-methyl-filtered); [U-2H, Ile-δ1-13CH3]-DegP samples at 43° and 50°C; NMR buffer pH 7.0; hexamer to trimers
[6] = target: the molecule itself; assay: NMR pulsed field gradient diffusion (13C-methyl-filtered); [U-2H, Ile-δ1-13CH3]-DegP samples at 25°C; NMR buffer 25 mM potassium phosphate, 1 mM EDTA, 1 mM TCEP pH 7.0; oligomeric state from viscosity- and temperature-corrected translational diffusion coefficient against a calibration curve; hexamer to trimers
[7] = target: the molecule itself; assay: SEC; full-length DegP^S210A variants alone; 8°C stated for DegP^S210A,Y444A; trimer and hexamer species
[8] = target: B1; assay: NMR titration; substrates (p23, β-casein, nonactivating reporter peptide) added to the DegP PDZ domains (fig. S12); β-casein up to half equimolar ratio; settings: both partners purified
[9] = target: T2, DegP PDZ1 domain (DegP^261-354) (E. coli K12, UniProt P0C0V0 287-380); assay: BLI; Octet RED96, 25°C; biotinylated PDZ2 on streptavidin biosensors, PDZ1 as analyte; steady-state analysis; 0.1% BSA, 0.05% Tween 20; association 30 s, dissociation 40 s; settings: both partners purified
T2 construct: DegP protease, E. coli K12, PDZ1 domain, residues 261-354; numbers count on: the mature protein; [U-15N]-labelled when observed in NMR titrations; also called pDS10; source: E. coli BL21 Star (λ DE3), purified (Ni2+ Sepharose, SENP1 cleavage, Superdex 75 Increase SEC); not shown: His6-SUMO, N-terminal, cleaved
T2 sequence (looked up): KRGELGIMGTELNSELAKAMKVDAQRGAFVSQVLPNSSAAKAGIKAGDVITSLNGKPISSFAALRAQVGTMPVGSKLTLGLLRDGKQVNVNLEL

biotinylated PDZ1 domain = target: T3, biotinylated PDZ1 domain (E. coli K12, UniProt P0C0V0 287-380, biotin (EZ-Link NHS-PEG4-Biotin, molar ratio 1:1 at pH 6.0 to ensure preferential labeling of the N-terminal α-amino group)); assay: BLI; Octet RED96, 25°C; biotinylated PDZ1 on streptavidin biosensors, PDZ2 as analyte; initial tests; settings: both partners purified
T3 construct: DegP protease, E. coli K12, PDZ1 domain, residues 261-354; numbers count on: the mature protein; m5 after biotinylation; immobilised on streptavidin biosensors; source: E. coli BL21 Star (λ DE3), purified, then biotinylated (EZ-Link NHS-PEG4-Biotin); not shown: His6-SUMO, N-terminal, cleaved
T3 sequence (looked up): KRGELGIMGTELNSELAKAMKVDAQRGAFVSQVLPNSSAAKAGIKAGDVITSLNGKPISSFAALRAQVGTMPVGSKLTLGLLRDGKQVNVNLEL

Binder: B1
- ratio of open to locked state of M280 at 37°C [1]: 1
- stoichiometry N [1]: 2

B2: DegP^S210A,Y444A, P0C0V0 27-474 (enzyme)
chain: AETSSATTAQQMPSLAPMLEKVMPSVVSINVEGSTTVNTPRMPRNFQQFFGDDSPFCQEGSPFQSSPFCQGGQGGNGGGQQQKFMALGSGVIIDADKGYVVTNNHVVDNATVIKVQLSDGRKFDAKMVGKDPRSDIALIQIQNPKNLTAIKMADSDALRVGDYTVAIGNPFGLGETVTSGIVSALGRSGLNAENYENFIQTDAAINRGNAGGALVNLNGELIGINTAILAPDGGNIGIGFAIPSNMVKNLTSQMVEYGQVKRGELGIMGTELNSELAKAMKVDAQRGAFVSQVLPNSSAAKAGIKAGDVITSLNGKPISSFAALRAQVGTMPVGSKLTLGLLRDGKQVNVNLELQQSSQNQVDSSSIFNGIEGAEMSNKGKDQGVVVNNVKTGTPAAQIGLKKGDVIIGANQQAVKNIAELRKVLDSKPSVLALNIQRGDSTIALLMQ
- stoichiometry N [2]: 3 and 6
- stoichiometry N [3]: 3

B3: DegP^S210A,M280I (enzyme, E. coli K12, UniProt P0C0V0 27-474, looked up)
chain: AETSSATTAQQMPSLAPMLEKVMPSVVSINVEGSTTVNTPRMPRNFQQFFGDDSPFCQEGSPFQSSPFCQGGQGGNGGGQQQKFMALGSGVIIDADKGYVVTNNHVVDNATVIKVQLSDGRKFDAKMVGKDPRSDIALIQIQNPKNLTAIKMADSDALRVGDYTVAIGNPFGLGETVTSGIVSALGRSGLNAENYENFIQTDAAINRGNAGGALVNLNGELIGINTAILAPDGGNIGIGFAIPSNMVKNLTSQMVEYGQVKRGELGIMGTELNSELAKAIKVDAQRGAFVSQVLPNSSAAKAGIKAGDVITSLNGKPISSFAALRAQVGTMPVGSKLTLGLLRDGKQVNVNLELQQSSQNQVDSSSIFNGIEGAEMSNKGKDQGVVVNNVKTGTPAAQIGLKKGDVIIGANQQAVKNIAELRKVLDSKPSVLALNIQRGDSTIYLLMQ
notes: numbers count on: the mature protein
- binding result [4]: binds

B4: DegP^S210A (full-length DegP, active site serine mutated) (enzyme, E. coli K12, UniProt P0C0V0 27-474, looked up)
chain: AETSSATTAQQMPSLAPMLEKVMPSVVSINVEGSTTVNTPRMPRNFQQFFGDDSPFCQEGSPFQSSPFCQGGQGGNGGGQQQKFMALGSGVIIDADKGYVVTNNHVVDNATVIKVQLSDGRKFDAKMVGKDPRSDIALIQIQNPKNLTAIKMADSDALRVGDYTVAIGNPFGLGETVTSGIVSALGRSGLNAENYENFIQTDAAINRGNAGGALVNLNGELIGINTAILAPDGGNIGIGFAIPSNMVKNLTSQMVEYGQVKRGELGIMGTELNSELAKAMKVDAQRGAFVSQVLPNSSAAKAGIKAGDVITSLNGKPISSFAALRAQVGTMPVGSKLTLGLLRDGKQVNVNLELQQSSQNQVDSSSIFNGIEGAEMSNKGKDQGVVVNNVKTGTPAAQIGLKKGDVIIGANQQAVKNIAELRKVLDSKPSVLALNIQRGDSTIYLLMQ
notes: numbers count on: the mature protein; Isotope-labelled for NMR ([U-2H,15N] or [U-2H, Ile-d1-13CH3]); also called full-length DegP^S210A
- stoichiometry N [5]: 3
- stoichiometry N [6]: 6

B5: DegP^S210A,M280A (enzyme, E. coli K12, UniProt P0C0V0 27-474, looked up)
chain: AETSSATTAQQMPSLAPMLEKVMPSVVSINVEGSTTVNTPRMPRNFQQFFGDDSPFCQEGSPFQSSPFCQGGQGGNGGGQQQKFMALGSGVIIDADKGYVVTNNHVVDNATVIKVQLSDGRKFDAKMVGKDPRSDIALIQIQNPKNLTAIKMADSDALRVGDYTVAIGNPFGLGETVTSGIVSALGRSGLNAENYENFIQTDAAINRGNAGGALVNLNGELIGINTAILAPDGGNIGIGFAIPSNMVKNLTSQMVEYGQVKRGELGIMGTELNSELAKAAKVDAQRGAFVSQVLPNSSAAKAGIKAGDVITSLNGKPISSFAALRAQVGTMPVGSKLTLGLLRDGKQVNVNLELQQSSQNQVDSSSIFNGIEGAEMSNKGKDQGVVVNNVKTGTPAAQIGLKKGDVIIGANQQAVKNIAELRKVLDSKPSVLALNIQRGDSTIYLLMQ
notes: as for B3
- stoichiometry N [7]: 3 and 6

B8: DegP PDZ2 domain (DegP^359-448) (domain or fragment, E. coli K12, UniProt P0C0V0 385-474, looked up)
chain: QNQVDSSSIFNGIEGAEMSNKGKDQGVVVNNVKTGTPAAQIGLKKGDVIIGANQQAVKNIAELRKVLDSKPSVLALNIQRGDSTIYLLMQ
notes: DegP protease, E. coli K12, PDZ2 domain, residues 359-448; numbers count on: the mature protein; [U-15N]-labelled when observed in NMR titrations; also called pDS11; source: E. coli BL21 Star (λ DE3), purified (Ni2+ Sepharose, SENP1 cleavage, Superdex 75 Increase SEC); not shown: His6-SUMO, N-terminal, cleaved
- fold weakening of Kd against PDZ1 on biotinylated PDZ2 (biotinylated PDZ1 domain): ~10 fold

Continued, values first:

- binding result [8]: binds
B6: p23 peptide (Abz-GNWVSAAKFETYR^NO3SKNTQDYGILQI) (peptide)
peptide: Abz-GNWVSAAKFETYR(NO3)SKNTQDYGILQI
modifications: reading uncertain; also: printed as Abz-GNWVSAAKFETYR^NO3^SKNTQDYGILQI
notes: The superscript probably marks a nitrotyrosine quencher at Y12; also called fluorescent p23 peptide; source: synthetic peptide, bought: GenScript

- Kd [9]: 7.8 ± 0.9 µM
B7: biotinylated PDZ2 domain (domain or fragment, E. coli K12, UniProt P0C0V0 385-474, looked up)
chain: QNQVDSSSIFNGIEGAEMSNKGKDQGVVVNNVKTGTPAAQIGLKKGDVIIGANQQAVKNIAELRKVLDSKPSVLALNIQRGDSTIYLLMQ
modifications: biotin (EZ-Link NHS-PEG4-Biotin, molar ratio 1:1 at pH 6.0 to ensure preferential labeling of the N-terminal α-amino group)
notes: DegP protease, E. coli K12, PDZ2 domain, residues 359-448; numbers count on: the mature protein; m6 after biotinylation; immobilised on streptavidin biosensors; source: E. coli BL21 Star (λ DE3), purified, then biotinylated (EZ-Link NHS-PEG4-Biotin); not shown: His6-SUMO, N-terminal, cleaved
